Assay [1] addresses Survivin (UniProt O15392). Kind of assay: biotinylated peptide pull-down, immunoblot. Conditions: reference: unmodified H3(1-21) peptide; sites T3. A general note: A western blot detects proteins with antibodies after separation by electrophoresis.
The target of assay [2] is Survivin (UniProt O15392). Kind of assay: peptide pull-down, Coomassie staining. Conditions: reference: unmodified H3 peptide; sites T3.
Assay [3] has as its target Histone-H3 (1-21) peptide phosphorylated at Thr-3 (UniProt P68431). Briefly: fluorescence polarisation. For orientation: Polarisation of emitted light reports the rotation of a fluorescent probe.

In the case of “Histone-H3 1-21 (from UniProt P68431) H3T3ph peptide”, the “binding against the reference” value in the assay with Survivin [1] was “stronger”.
For “Histone-H3 (from UniProt P68431) H3T3ph peptide”, in the assay with Survivin [2], the “binding against the reference” value is “stronger”.
For the substance “xISD complex containing INCENP(1-58), Survivin and Dasra-A (from UniProt Q4V7H8 1-296)”, in assay [3], the fold enhancement of binding by T3ph against unmodified H3 is 20 fold.

(Values after paper PMC2967368.)
